Source: article PMC7213981, “Enhancer architecture sensitizes cell specific responses to Notch gene dose via a bind and discard mechanism” (eLife, 2019)

T1: fly NICD (aa 1763–2412) (Drosophila, UniProt P07207 1763-2412)
T1 construct: Notch intracellular domain, Drosophila, residues 1763-2412; not the full-length NICD; also called Notch intracellular domain
T1 sequence (looked up): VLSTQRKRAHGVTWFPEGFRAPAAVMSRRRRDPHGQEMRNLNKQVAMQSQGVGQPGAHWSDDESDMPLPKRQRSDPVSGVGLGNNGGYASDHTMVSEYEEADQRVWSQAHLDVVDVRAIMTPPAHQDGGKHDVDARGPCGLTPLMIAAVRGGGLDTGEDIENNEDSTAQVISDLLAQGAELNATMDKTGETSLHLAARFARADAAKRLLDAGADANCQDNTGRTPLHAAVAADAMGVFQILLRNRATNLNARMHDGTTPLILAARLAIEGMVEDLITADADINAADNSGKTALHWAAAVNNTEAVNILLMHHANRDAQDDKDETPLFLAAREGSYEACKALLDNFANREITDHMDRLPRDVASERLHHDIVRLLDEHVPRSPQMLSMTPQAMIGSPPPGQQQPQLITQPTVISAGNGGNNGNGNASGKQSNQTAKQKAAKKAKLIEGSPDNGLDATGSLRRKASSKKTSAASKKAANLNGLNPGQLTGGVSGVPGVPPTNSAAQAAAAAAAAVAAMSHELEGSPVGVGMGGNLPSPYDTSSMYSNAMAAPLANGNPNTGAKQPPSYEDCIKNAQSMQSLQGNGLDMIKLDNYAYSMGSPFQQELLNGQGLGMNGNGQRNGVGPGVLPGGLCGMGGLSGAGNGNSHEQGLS

B1: fly Mastermind (aa 87–307) (domain or fragment, Drosophila, UniProt P21519 87-307, looked up)
chain: PYNANLGATGGIAGITGGNGAGGPTNPGAVPTAPGDTMPTKRMPVVDRLRRRMENYRRRQTDCVPRYEQAFNTVCEQQNQETTVLQKRFLESKNKRAAKKTDKKLPDPSQQHQQQQHQQQQQHQQHQQHQQAQTMLAGQLQSSVHVQQKFLKRPAEDVDNGPDSFEPPHKLPNNNNNSNSNNNNGNANANNGGNGSNTGNNTNNNGNSTNNNGGSNNNGSE
notes: Mastermind, Drosophila, residues 87-307; not the full-length protein; also called Mam
B2: fly Su(H) (aa 98–523) (domain or fragment)
chain: not shown
notes: Suppressor of Hairless, Drosophila, residues 98-523; also called CSL
B3: human MAML1 (aa 1–280) (domain or fragment, UniProt Q92585 1-280, looked up)
chain: MVLPTCPMAEFALPRHSAVMERLRRRIELCRRHHSTCEARYEAVSPERLELERQHTFALHQRCIQAKAKRAGKHRQPPAATAPAPAAPAPRLDAADGPEHGRPATHLHDTVKRNLDSATSPQNGDQQNGYGDLFPGHKKTRREAPLGVAISSNGLPPASPLGQSDKPSGADALQSSGKHSLGLDSLNKKRLADSSLHLNGGSNPSESFPLSLNKELKQEPVEDLPCMITGTVGSISQSNLMPDLNLNEQEWKELIEELNRSVPDEDMKDLFNEDFEEKKD
notes: Mastermind-like protein 1, human, residues 1-280; not the full-length protein; The results list MAML1 among the 'mouse' proteins, the methods say human MAML1; also called Mastermind
B4: mouse N1ICD (aa 1744–2113) (domain or fragment, UniProt Q01705 1744-2113, looked up)
chain: VLLSRKRRRQHGQLWFPEGFKVSEASKKKRREPLGEDSVGLKPLKNASDGALMDDNQNEWGDEDLETKKFRFEEPVVLPDLSDQTDHRQWTQQHLDAADLRMSAMAPTPPQGEVDADCMDVNVRGPDGFTPLMIASCSGGGLETGNSEEEEDAPAVISDFIYQGASLHNQTDRTGETALHLAARYSRSDAAKRLLEASADANIQDNMGRTPLHAAVSADAQGVFQILLRNRATDLDARMHDGTTPLILAARLAVEGMLEDLINSHADVNAVDDLGKSALHWAAAVNNVDAAVVLLKNGANKDMQNNKEETPLFLAAREGSYETAKVLLDHFANRDITDHMDRLPRDIAQERMHHDIVRLLDEYNLVRSPQ
notes: Notch1 intracellular domain, mouse, residues 1744-2113; not the full-length NICD; also called N1ICD1; NICD

Columns and labels:
Experiment in all cases: native gel or EMSA; complexes formed on IRDye-labelled 2xCSL and 1xSPS DNA probes in the same binding reaction; RBPJ/Su(H) 10 to 320 nM, 1 µM NICD/Mastermind; native polyacrylamide gel
Settings in all cases: both partners purified
fly Su(H) (aa 98–523) = target: B2
Chain of fly Su(H) (aa 98–523) (P28159 98-523): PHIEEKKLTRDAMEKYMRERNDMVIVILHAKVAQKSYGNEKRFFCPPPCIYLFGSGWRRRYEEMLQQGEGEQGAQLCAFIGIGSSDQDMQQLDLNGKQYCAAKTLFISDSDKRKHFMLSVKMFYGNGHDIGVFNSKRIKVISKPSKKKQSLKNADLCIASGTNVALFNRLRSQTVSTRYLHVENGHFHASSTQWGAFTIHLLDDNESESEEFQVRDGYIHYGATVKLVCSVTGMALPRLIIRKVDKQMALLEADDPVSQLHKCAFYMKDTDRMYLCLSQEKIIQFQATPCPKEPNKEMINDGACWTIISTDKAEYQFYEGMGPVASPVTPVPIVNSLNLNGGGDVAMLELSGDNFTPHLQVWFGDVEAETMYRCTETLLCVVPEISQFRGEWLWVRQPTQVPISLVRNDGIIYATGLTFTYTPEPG

fly NICD (aa 1763–2412) = target: T1, fly NICD (aa 1763–2412)
mouse RBPJ (aa 53–474) = target: T2, mouse RBPJ (aa 53–474) (mouse, UniProt P31266 53-474)
T2 construct: RBPJ, mouse, residues 53-474; also called CSL
T2 sequence (P31266 53-474): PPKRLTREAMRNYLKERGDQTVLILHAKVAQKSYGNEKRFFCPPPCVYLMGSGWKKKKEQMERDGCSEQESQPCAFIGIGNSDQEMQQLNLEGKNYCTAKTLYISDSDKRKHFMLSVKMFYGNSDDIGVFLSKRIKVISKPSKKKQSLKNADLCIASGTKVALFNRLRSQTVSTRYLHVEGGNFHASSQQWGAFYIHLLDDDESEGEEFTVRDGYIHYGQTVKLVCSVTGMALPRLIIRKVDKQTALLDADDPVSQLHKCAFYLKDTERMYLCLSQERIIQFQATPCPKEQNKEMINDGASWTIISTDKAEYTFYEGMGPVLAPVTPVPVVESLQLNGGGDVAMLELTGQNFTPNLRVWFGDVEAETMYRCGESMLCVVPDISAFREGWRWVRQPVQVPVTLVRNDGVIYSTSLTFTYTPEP

| binding result (mouse RBPJ (aa 53–474)) | Binder | also measured |
| --- | --- | --- |
| – | B1 | binding result (fly Su(H) (aa 98–523)): binds |
| – | B2 | binding result (fly NICD (aa 1763–2412)): binds |
| binds | B3 | – |
| binds | B4 | – |
